This is an account of results in publication PMC3593212, “Sequence-Specific, RNA–Protein Interactions Overcome Electrostatic Barriers Preventing Assembly of Satellite Tobacco Necrosis Virus Coat Protein” (Journal of Molecular Biology, 2013).

Data set [1] has as its target T1, STNV-1 coat protein (CP) (Satellite tobacco necrosis virus 1 …, UniProt P03606 1-196).
T1 sequence: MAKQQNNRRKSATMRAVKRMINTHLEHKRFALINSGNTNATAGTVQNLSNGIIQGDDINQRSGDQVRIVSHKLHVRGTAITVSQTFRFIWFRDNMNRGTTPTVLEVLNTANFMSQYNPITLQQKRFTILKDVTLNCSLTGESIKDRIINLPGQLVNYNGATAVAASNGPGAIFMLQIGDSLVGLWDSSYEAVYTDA
Briefly: analytical ultracentrifugation (capsid reassembly); heterologous RNA; triggers capsid assembly; Reassembly buffer, salt, pH and temperature not in the material (capsid assembly depends on calcium and pH); short RNAs at molar ratios incl. 1:1 and 2.5:1; CP. To be noted: protein: recombinant; hairpin, loop AUUA.

Data set [2] deals with the molecule itself. Briefly: crystal structure; VLP reassembled from purified CP with B3 RNA aptamer (5:1 w/w CP:RNA) in 50 mM Hepes, 3 mM CaCl2, pH 7.5, purified by SEC; crystals in 50 mM phosphate pH 6.2-6.8, 0.2-0.8% PEG 6000, 0-1 mM MgCl2, 25 °C; strict 60-fold NCS.
Data set [3] concerns the target T1, STNV-1 coat protein (CP). Kind of data set: analytical ultracentrifugation (capsid reassembly); assembly more efficient than B3; Reassembly buffer, salt, pH and temperature not in the material (capsid assembly depends on calcium and pH); short RNAs at molar ratios incl. 1:1 and 2.5:1; CP. To be noted: protein: recombinant; hairpin, 4-nt loop ACAA.
Data set [4] deals with T1, STNV-1 coat protein (CP). Kind of data set: analytical ultracentrifugation (capsid reassembly), TEM; VLPs form even at lowest molar ratio; 28 S and ~42 S species at 1:1; Reassembly buffer, salt, pH and temperature not in the material (capsid assembly depends on calcium and pH); short RNAs at molar ratios incl. 1:1 and 2.5:1; CP. To be noted: protein: recombinant; hairpin, 4-nt loop ACAA.

B1: MS2 TR (structured_RNA)
RNA: ACAUGAGGAUUACCCAUGU
On to B1, for which the binding result with STNV-1 coat protein (CP) [1] is “binds”.

B2: satellite tobacco necrosis virus (STNV-1) coat protein (natural protein)
chain: MAKQQNNRRKSATMRAVKRMINTHLEHKRFALINSGNTNATAGTVQNLSNGIIQGDDINQRSGDQVRIVSHKLHVRGTAITVSQTFRFIWFRDNMNRGTTPTVLEVLNTANFMSQYNPITLQQKRFTILKDVTLNCSLTGESIKDRIINLPGQLVNYNGATAVAASNGPGAIFMLQIGDSLVGLWDSSYEAVYTDA
notes: coat protein of satellite tobacco necrosis virus strain 1 (STNV-1), recombinant version expressed from a synthetic gene; In the T = 1 capsid the chain stands 60 times; all assembly here was done with RNA present; also called STNV CP; CP; source: E. coli (synthetic gene); recombinant VLPs purified, disassembled in 50 mM Hepes, 10 mM EDTA, pH 8.5; CP separated from the mRNA by Q-Sepharose FF and SP …
In the case of B2, the “stoichiometry N” value in data set [2] worked out at 60.

B3: B3 short (structured_RNA)
RNA: CGUGCAACAAUGCACG
B3: in the data set with STNV-1 coat protein (CP) [3], the binding result is recorded as “binds”.

B4: B3 aptamer (structured_RNA)
RNA: CCUUUUCAAGACAUGCAACAAUGCACACAG
On to B4, for which the binding result in the data set with STNV-1 coat protein (CP) [4] was “binds”.

A word on the stoichiometry N: it is the number of molecules, sites or subunits per partner or assembly.
